Laboratory results published in patent publication US20110195090A1.

target: Bal gp120 (HIV-1 isolate Bal); test: ELISA, bal gp120 coated, scFv

Q: How did the EC50 turn out when scFv b12 germline mutant A52P/G53Y was run?
A: The EC50 was 87.3 nM.

Q: mature scFv b12 was tested. Which EC50 did it give?
A: The EC50 was 1.3 nM.

Q: For scFv b12 germline mutant G53Y, which EC50 is on record?
A: The EC50 was over 1000 nM.

target: Bal gp120 (HIV-1 isolate Bal); test: ELISA, bal gp120 coated, scFv-Fc

Q: Which EC50 does the source give for b12 G53Y scFv-Fc (Fc fusion) here?
A: Its EC50 is over 1000 nM.

Q: b12 A52P/G53Y scFv-Fc (Fc fusion) was tested. Which EC50 did it give?
A: The EC50 was 29.3 nM.

Q: For mature b12 scFv-Fc (Fc fusion), which EC50 is on record?
A: The EC50 was 0.4 nM.
